Assay results reported in article PMC9674701, “Cancer cell survival depends on collagen uptake into tumor-associated stroma” (Nature Communications, 2022).

Target: FITC-labeled bovine type I Collagen (Chondrex 4001) (bovine, UniProt P02453 162-1217; P02465 80-1117, FITC label (FITC-Col labeled at a 1:1 molar ratio); labelled residues not stated | FITC label (FITC-Col labeled at a 1:1 molar ratio); labelled residues not stated)
Experiment: cell-based or functional assay

Chain of FITC-labeled bovine type I Collagen (Chondrex 4001) (P02453 162-1217, chain 1 of 2): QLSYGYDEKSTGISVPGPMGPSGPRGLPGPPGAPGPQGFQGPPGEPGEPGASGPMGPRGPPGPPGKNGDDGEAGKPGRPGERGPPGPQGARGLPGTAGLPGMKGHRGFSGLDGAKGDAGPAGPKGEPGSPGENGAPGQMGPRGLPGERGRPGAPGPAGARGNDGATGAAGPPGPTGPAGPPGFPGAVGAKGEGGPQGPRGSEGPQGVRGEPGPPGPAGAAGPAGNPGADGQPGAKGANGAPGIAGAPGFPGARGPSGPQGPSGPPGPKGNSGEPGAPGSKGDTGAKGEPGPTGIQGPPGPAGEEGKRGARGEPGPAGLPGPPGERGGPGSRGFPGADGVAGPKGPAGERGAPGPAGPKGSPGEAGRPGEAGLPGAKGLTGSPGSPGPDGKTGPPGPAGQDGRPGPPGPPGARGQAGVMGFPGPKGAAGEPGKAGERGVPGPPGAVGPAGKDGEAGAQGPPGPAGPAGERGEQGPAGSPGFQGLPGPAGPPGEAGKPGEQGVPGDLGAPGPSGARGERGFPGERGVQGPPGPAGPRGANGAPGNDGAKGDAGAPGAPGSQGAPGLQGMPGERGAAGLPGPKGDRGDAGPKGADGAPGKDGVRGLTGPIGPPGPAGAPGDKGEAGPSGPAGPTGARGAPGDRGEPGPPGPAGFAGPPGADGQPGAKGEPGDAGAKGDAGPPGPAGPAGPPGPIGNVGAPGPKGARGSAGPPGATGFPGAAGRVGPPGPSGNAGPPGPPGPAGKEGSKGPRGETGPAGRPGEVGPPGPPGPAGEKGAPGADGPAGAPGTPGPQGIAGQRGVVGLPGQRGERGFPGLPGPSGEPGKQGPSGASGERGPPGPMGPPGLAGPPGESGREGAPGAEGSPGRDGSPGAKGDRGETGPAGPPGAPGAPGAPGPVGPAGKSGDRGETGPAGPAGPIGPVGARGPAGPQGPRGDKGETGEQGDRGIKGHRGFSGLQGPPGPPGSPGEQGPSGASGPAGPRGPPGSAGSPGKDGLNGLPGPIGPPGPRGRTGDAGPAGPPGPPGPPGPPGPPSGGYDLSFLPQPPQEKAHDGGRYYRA
Chain of FITC-labeled bovine type I Collagen (Chondrex 4001) (P02465 80-1117, chain 2 of 2): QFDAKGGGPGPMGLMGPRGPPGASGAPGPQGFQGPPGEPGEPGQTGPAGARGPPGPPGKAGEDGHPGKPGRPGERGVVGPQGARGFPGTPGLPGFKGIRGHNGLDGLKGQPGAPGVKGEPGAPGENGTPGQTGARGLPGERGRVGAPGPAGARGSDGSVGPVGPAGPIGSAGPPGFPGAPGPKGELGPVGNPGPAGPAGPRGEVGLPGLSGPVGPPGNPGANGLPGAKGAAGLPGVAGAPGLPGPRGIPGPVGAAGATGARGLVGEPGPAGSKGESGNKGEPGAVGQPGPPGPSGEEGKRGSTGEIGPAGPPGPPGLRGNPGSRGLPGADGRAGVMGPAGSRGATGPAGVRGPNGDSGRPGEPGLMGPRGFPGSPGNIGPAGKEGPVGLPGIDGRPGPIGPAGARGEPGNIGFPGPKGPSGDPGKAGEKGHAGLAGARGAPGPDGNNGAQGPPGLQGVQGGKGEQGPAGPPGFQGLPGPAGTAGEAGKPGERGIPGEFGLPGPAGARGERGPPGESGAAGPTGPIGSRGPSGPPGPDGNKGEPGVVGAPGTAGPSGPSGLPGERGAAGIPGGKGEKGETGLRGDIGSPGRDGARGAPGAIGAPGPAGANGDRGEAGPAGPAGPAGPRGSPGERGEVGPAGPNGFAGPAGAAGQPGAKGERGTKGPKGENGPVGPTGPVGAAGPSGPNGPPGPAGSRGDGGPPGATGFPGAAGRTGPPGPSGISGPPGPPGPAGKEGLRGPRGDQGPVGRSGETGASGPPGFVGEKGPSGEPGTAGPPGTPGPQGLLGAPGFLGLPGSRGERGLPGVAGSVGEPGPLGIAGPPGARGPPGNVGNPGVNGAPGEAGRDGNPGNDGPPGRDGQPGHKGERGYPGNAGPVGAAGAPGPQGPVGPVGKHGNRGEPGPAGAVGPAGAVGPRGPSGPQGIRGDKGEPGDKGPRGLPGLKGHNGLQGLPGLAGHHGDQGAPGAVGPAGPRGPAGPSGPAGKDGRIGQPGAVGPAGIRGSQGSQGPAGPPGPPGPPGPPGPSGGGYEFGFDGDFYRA

B1: TEM8 on TEM8 overexpressing CHO cells (CHO-TEM8), wild type (receptor)
chain: not shown
FITC-col internalization assay, flow cytometry of FITC-col trapped inside cells (Fig. 4e): 5 fold | soluble FITC released into the culture supernatant from a FITC-Col gel, 48 h (Fig. 4d): ~3 fold
